System: OC[C@H]1O[C@H](O[C@H]2O[C@H](CO)[C@@H](O)[C@H](O)[C@H]2O)[C@H](O)[C@@H](O)[C@@H]1O
Assay: purified protein
Conditions: 25 °C, Glucose Liquiform kit solution, 0.03125-4 mM trehalose

## Xcc TreA (recombinant Xcc trehalase) (Xanthomonas citri subsp. citri 306)
  Km: 77 µM
